Source: the domain aggregation screens of Martell et al. (2025)

Test: soluble fraction after stress (log2 fold change); higher = more stays soluble; pooled small domains, quantitative proteomics
Conditions: stress: 50 degC
Outline: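 The measure of aggregation propensity here is the base-two logarithm of the fold change in the soluble amount of each protein after stress. A higher value means more of that protein stays in solution. Stress was applied at 50°C to pooled libraries of small protein domains, read out by high-throughput quantitative proteomics.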

Sequence	soluble fraction (log2)
HMTKEEFLDEIKKELGFMPYEEVIKAEKYFESYFNGSEADEKVIERFGSPKYAAQNYYRTHVAN	-0.0965
HMEQSGDELKTWVDQAIAAYPEKVKEYQQGKKGLLALFIGEVMKRSKGTADPKKVNQLVTEALS	0.045
HMTNVFSIIGKKALVIKDIDPIHSSGQIKLNGEVWSAETENDEIIKEGSEVEVLKINGVKAIVKLV	-0.107
HMQLKFTDLRKEILRMIWEGHGPQKAYDLLNKLQQTNPSAKPATVYRALDFLIGNGFIHKVASLNAFVG	-0.668
HMLINPLDILRNFNLSLYDDSRDSASNKEIDEIFESIKTNNSHIFSTLKAYRIPLPIASLIIKKIIKITLE	-0.534
HMSSAVKRALAELPENWRMIVYYRVVEGLSYAEIAKVLDIPDGSVMSGLHRGKKMLRGLLLEYAQQEGYD	-1.72
HMATPTEHQLQAQARAVVEKAERLLDRASADDREDIINLIEKITDALAAEDFTAVKAPLAELSDILFYLE	-0.418
HMSKEIQNILASLPSVDVLLKQIDPIYPHGKAKEATQQVVARLRESVVDGTRKTVIDQKEVIAMIHKQLEE	0.143
HMGIFAQTTKWRDIYTVKKKDTIFGIANKYGLSLPELMEANPEMKQEGYMLQKGTTLFIPFASD	-0.483
HMPSLGADIRALRKSRKMTLVALADALGRSVGWLSQVERDKSHATIADLGRMAEVLDVSISSFL	-0.27
HMQTKSDMVYHRVREDIVNGVFAPGERLLISAVAKQYGVSEIPVREAFRVLSQEGFLKTRPNSGFVVS	0.0933
HMLFKGDTREENVILEFLSKNGTTSSDAIIKQTGLSASEFNQAITMLELKGLALNNGGEKWSL	-0.0779
HMRIDSFEDARRRFEYDYLTRLLKLTQGSVTQAAKLAKRNRTEFYKLLQRHGIEAAHFKPTS	-0.581
HMGQAELPYSEFLREVNNGQVKSVIIEGSEITGFYKTSGTSFNVIAPDDPKLVERLMAQGVEVRAQPA	0.0327
HMRTANREKRIEASVKMMKAGYPVGYIIARVFMYEGWEEDYRQLLIYLSEKIPKDVSNPITFEVIS	-0.296
HMSISDEDFAKLLDFVKEKWDAGELDNAEDIKAAISEGEKEFGVSLDESTRTTLASALQQLN	-0.134
HMPILRDEVYLSIKEAILTGELAPGERISIGRLLPQIGFSPTPIREALLKLEQEGFVSRLQRGGFIVSR	-0.991
HMSPSSPNQILGQYPKTKNDIILSSGRYGPYLKYNKKNYSLGNNISVEKLSLEEAVKIIDLKDKK	0.0457
HMDEWKRKELWDAIARLPKIQRMVVTMRTTENLPYKEIAKIMNISENSAKVNYHHAVEALKIFF	-2.66
HMEVPNLIGMTDKDLQRTYFQLPIEAAGDGSVVIKQLPEPGEKVKEGSVIRVLLG	0.171
HMKEINFTIEESAKGRLDKVIAENVADLTRSQVQSLIKKGQILVNDAPTTNRYQVKPNDQVIIKLPDPV	0.339
HMDGASLLDIDGDGKVTPTIDGLLLMRWQFGTRGAALIGGISFPAGALRTTVNAIELHMRRLSETT	-0.844
HMVNTYILNNKEYPIEIIRKNNKNTYLRVKEGKIIVTTNYLTSSFTINKLIKDNTSFINKALLKEN	-0.595

Sequence	soluble fraction (log2)
HMRAFTPSEAQVAHARRVMEAFWQHQREGHGAFALDGKMVDAPIVKAAARVLARAGLQDPNHPIHLA	-0.0227
HMTDPVLYEERDDIAIITINRPEKKNTLTDAVIQGIADGIDAATKSADVVAVVLRGAGDTLTAGYDLTA	-0.132
HMTAIWKTITATLTHDIATGKYAPGDRLPTEAQLAARFGVNRHTVRRAISDMNESGLTYSRRGAGVFVAQ	-2.59
HMHDITPAVAETFKQLRAERGLSLSQAAQLTGVSKAMLGQIERGQSSPTVSTLWKIATGFNVAFSVFL	-2.4
HMHPQISVEGVLPLKEAVEFVEREIISHAYSRYRATREVARHLGIDPSTVLRKAAKYGITVEPGKN	-0.658
HMRDANYFINPIHEWQKRYEALRASFVDRLPAQAVAQRFGYTITYIHLLRHQFKSGKIDFSEPVPEG	-4.61
HMFVEKDSIINKGNNSYNFVITDNNNKVLVEYNGLLPDLFKEEQGVVIEGRLKSDFIIHAFTVF	-0.209
HMGRPTLEQLLDRAQAMGVPRERYAAYADRRWGRGWRVNPHGRGRAWDELDRYRNDPAGYLDKIEVELNQL	-0.101
HMNGPTPEEKLAVVNAEFVRQYGDEYEELELEGEELEEYYQKALNKEDFEYDIPHLPGWDEP	0.0217
HMHHIDYKQLRRINPVAARRAVLDYLESTGGNITKTAQVFSINRSVVYDILKKQASGDLSDRLRIP	-1.32
HMQPAGEGAILRYLSSGAVKGIGPVMAREIVRRFGTDTFRVMEQEPEKLLKVKGITEQRLQTIMESYQD	-0.0857
HMISKTFEINEDNINNRLDIFLANQFDNLSRGIVQKLIESHSVSVSGNFVEKDYKLKLGDIIDVEINLS	-0.486
HMVANLPFNYKVYAKKGKLYVVISYKDSNGKYKKKWIRTGLDEGTKKKEVNTVADQIAAEYYSSMRLE	-1.54
HMESENANVNRAMLTGIASMHAGQLETALNKFNEVIQLAPDFAEGWNKRATIFYLMKKFDRSVNDIAQTLK	-0.0738
HMEAPMPIFWRPQFRIGHDDIDADHRYLILLINTVELVLRFPDDPRNVELALTELRRYAEDHFEREER	-0.161
HMPGGLSAEDVEKMVEKVLTVNGDVVEEIRSGRDPKGKKIKFLAGLVMRDARGQADAAAVSGILERRLKEG	0.133
HMQTYNQLKRGMTEWIQAGQKQKAYELFAGVAGQLSLSSAAGKKQYNELVTILNRAGFGIPLE	-0.428
HMDEMEFQKYVDQNLKQKGISLTAEAKAELLLRLGGDTMLLHSAIEKLDLYGEKNLNLNDIKHLVSLNSDV	0.229
HMRMTKPLPFDLAAFRNEFGFTKSIIMQEVGVSRHIYDNVERTNATPPEFYDDFVSFFQRHGQ	-1.04
HMGASSLVGRSARVLQAVTDSDGRIKLAGETWSARLAAGATSTVGPGEEVRVIAIHGATAIVAPV	0.0322
HMNDTPPELRAALDLLGLKWPLASVELRARYKDLAKQHHPDATGGDKQAEERLKDINRAYSLLKHRLAKQ	-0.07
HMGISNEETFLLEKMSSGRRYSRKELDNLMGFEKTKTIRLLGSLINKGLVVAEGVNRARRYIR	-1.12
HMAKPVNISAEPYHYDPTRFRVTFELPRLSDQPRKRIRKVAPAGLDREQALAWAKRLEREVLHELLR	-0.494

Sequence	soluble fraction (log2)
HMYEDIDSAYRILEINSTVSNQEIKNAYRRMAKKYHPDKVAHLGVEHQKGAEEKFKKVQEAYILIKKRRG	-0.557
HMTNTWNNIVERNDLFFKKFTNTPFNGKIETYWPNGNLKETGIITDGKKDNLWEYYYENGNPKEVEF	-0.397
HMAPLATIHVSSLSQKPFYLYGTFEDRRGNHLFFLEQIMGENKSIPVAMPSSAINPKIHASLTPPKG	-0.32
HMIVAHEINRHLGESDQPVEIPDNRREGAVAELLKTFNNDDAFREMDDGKYEVALDGEKVREAARSLLA	0.027
HMDWVAYGAELRRRRLLAGWSVAELSRRTNLSTSIIYQVEQARTRLRPSQLTLAKLAAALGMP	-3.15
HMTAMDTQQKKLIIMYHDIHRLRNVEHFTIQRIADHLLLNFRTVKKFLEMTQEEFDKFSENRW	-3.01
HMGPVRDLGLLESAAHRPTTALWGRDVYATIEKKAAALLDSLVRDRPLADGNKRLGWLAALV	0.0437
HMDQINNDLRKLIEFLPEDQKTVLKMRHFQEMSFKEIAKATGVSINTALGRMRYALINLRKLIEENEI	-1.41
HMAAVSTDEEFAALGIPAEWIPVLKSNGFQTVESLKKVAPGALFNQLGGLRKKNKLEIAMPSLDQVKAWLA	0.115
HMNNIGSKIKSAKILNNLDDNQLSEITGIDKLQLRSIQDGQVNPTKMELEIISKALKLPTNYFTK	-0.0222
HMDAATDAIKAEVRALLEMANAQGIDTESIMLEAHEQTRNATEQDYYEAAKSALEAAIAGSNRDR	0.0377
HMTLSVRQRMSQIINKIDVSNFTDFTKLFDINEGRLGVAVTFLAILELLKDTMIDVIQNEEFAPLHIKVSS	-0.177
HMRYVVQVATFSSKNNAIRAADDLAGFVVVSNGYYRVRTGPYADRGEANAALAKARKAGYTDAFVDTS	-0.798
HMVPQEVLPITLIIDGKLIEENLLYAKMTEQVLIQQLDINNIKSIKQILFAGLDSFGNFFYQEKQN	-1.8
HMNVNALIGQEGIVIKEINSGSNKIGQVKISGDTWSAVTTNDFTNAIPVGSNVKILKIDGVNLIVEPVY	-0.0724
HMIENITIELNKKALALDFELNKDLPEGVLETIPTLVSLMVRFDPLTVSYHFLRDYIDALLESNLNVDL	-0.0273
HMASAAHYEGVKTEGESDNDVITRVLTATGVTAEKDDIFVVKSLIADGKYSYTAYVYDGSVWAAMD	-0.0797
HMGDWEKALAQFAAHRLANGSTAFLDEMYPIFERILLQAALNKTGGRKIEAAELLGWGRNTLTRKLKELGF	-2.2
HMVQDSEWWRNYQSAHDYFIQNGHLNVLRSDKKNTKLYNWIVGQRSSRWNSQGRINLLNSIGFIWDT	-3.08
HMELNKNDLKIIKNISHIYPYFTPVKILQLILSKKFKTIDYNKILKSTSILTTDRSHLYYILNN	0.0788
HMDRRDEYHQHLLRLLLSGEIRDKDELQRRKVKLSGEYGLAGVPKNSETLALVPPDRLPEVLDILR	0.065
HMGGVTVQNRETHVNSTVNVRSEQTTESERVALAYQGDAITQIESYENGWSKVEYKGLSGYVMTEYL	-0.181
HMDMPLIGTAIRGWGIISPAQQETLIKMSILTVEDLAAINDEGIKRIGMGGLDLKNKAKAWLLQLK	-0.751
